Test results taken from PMC6562043 (Scientific Reports, 2019).

Target: T1, synthesized human Aβ42 peptide (human, UniProt P05067 672-713)
T1 construct: also called Aβ peptide
Test: ELISA
Details: one partner purified

B1: human PrP^C (transgene of TgHuPrP mice) (natural protein)
chain: not shown
  binding relative to mouse PrP^C, corrected for PrP expression: 177 ± 9.5%
